B4: His6-pro-Caspase-9 (enzyme)
chain: HHHHHHMDEADRRLLRRCRLRLVEELQVDQLWDALLSRELFRPHMIEDIQRAGSGSRRDQARQLIIDLETRGSQALPLFISCLEDTGQDMLASFLRTNRQAAKLSKPTLENLTPVVLRPEIRKPEVLRPETPRPVDIGSGGFGDVGALESLRGNADLAYILSMEPCGHCLIINNVNFCRESGLRTRTGSNIDCEKLRRRFSSLHFMVEVKGDLTAKKMVLALLELAQQDHGALDCCVVVILSHGCQASHLQFPGAVYGTDGCPVSVEKIVNIFNGTSCPSLGGKPKLFFIQACGGEQKDHGFEVASTSPEDESPGSNPEPDATPFQEGLRTFDQLDAISSLPTPSDIFVSYSTFPGFVSWRDPKSGSWYVETLDDIFEQWAHSEDLQSLLLRVANAVSVKGIYKQMPGCFNFLRKKLFFKTS
notes: also called recombinant pro-Caspase-9

The target in assay [1] is HBXIP/Survivin complex (GST-HBXIP with purified untagged Survivin) (human, UniProt O43504 1-91; O15392 1-142). The experiment in a line: GST pull-down, anti-Caspase-3 immunoblot.
Assay [2] deals with T1, GST-HBXIP (human, UniProt O43504 1-91). The assay can be described thus: GST pull-down, anti-Caspase-3 immunoblot. On the technique in general: A western blot detects proteins with antibodies after separation by electrophoresis.
Assay [3] deals with T1, GST-HBXIP. The assay can be described thus: GST pull-down, anti-Caspase-9 immunoblot.
The target of the assay “His6-pro-Caspase-9” is B4. The experiment in a line: GST pull-down in the presence of Survivin, anti-Caspase-9 immunoblot.

From patent US20040138119A1 (BURNHAM INSTITUTE, published 2004) come the findings set out here.

B1: His6-pro-Caspase-3 (enzyme)
chain: HHHHHHMENTENSVDSKSIKNLEPKIIHGSESMDSGISLDNSYKMDYPEMGLCIIINNKNFHKSTGMTSRSGTDVDAANLRETFRNLKYEVRNKNDLTREEIVELMRDVSKEDHSKRSSFVCVLLSHGEEGIIFGTNGPVDLKKITNFFRGDRCRSLTGKPKLFIIQACRGTELDCGIETDSGVDDDMACHKIPVEADFLYAYSTAPGYYSWRNSKDGSWFIQSLCAMLKQYADKLEFMHILTRVNRKVATEFESFSFDATFHAKKQIPCIVSMLTKELYFYH
Consider B1, for which the binding result (in assay [1]; with GST-HBXIP [2]) was “no binding” throughout.

B2: active His6-Caspase-9 (lacking CARD domain) (enzyme)
chain: HHHHHHVGALESLRGNADLAYILSMEPCGHCLIINNVNFCRESGLRTRTGSNIDCEKLRRRFSSLHFMVEVKGDLTAKKMVLALLELAQQDHGALDCCVVVILSHGCQASHLQFPGAVYGTDGCPVSVEKIVNIFNGTSCPSLGGKPKLFFIQACGGEQKDHGFEVASTSPEDESPGSNPEPDATPFQEGLRTFDQLDAISSLPTPSDIFVSYSTFPGFVSWRDPKSGSWYVETLDDIFEQWAHSEDLQSLLLRVANAVSVKGIYKQMPGCFNFLRKKLFFKTS
notes: also called active Caspase-9
For B2, in the assay with GST-HBXIP [3], the binding result is “no binding”.

B3: GST-CD40 (cytosolic domain) control protein (other, UniProt P25942 216-277, looked up, not shown: a dimerising Fc or GST)
chain: KKVAKKPTNKAPHPKQEPQEINFPDDLPGSNTAAPVQETLHGCQPVTQEDGKESRISVQERQ
notes: domain: cytosolic domain
Regarding B3, in the assay with His6-pro-Caspase-9, the binding result is on record as “no binding”.
As to B4, the binding result in the assay with GST-HBXIP [3] was “no binding”.
